Assay results: patent US20260139035A1

Target: spike proteins of SARS-CoV-2 variants (614G, Alpha, Beta, Gamma, Delta, Kappa, Lambda, Mu, BA.1, BA.)
Assay: cell-based or functional assay

B1: 3-1 antibody (antibody, V domains shown)
VH: EVQLVQSGAEVKKPGESLKISCKGSGYIFTNYWIGWVRQMPGKGLEWMGIINPRDSDTRYSPSFQGQVTISTDKSINTAYLQWSSLKASDTAMYYCARQQGGFGDLGAYNWFDPWGQGTLVTVSS
VL: not shown
IC50, pseudovirus neutralization: < 0.25 µg/mL
